Experimental data from PMC12288466, “EzrA promotes Z-ring formation through interaction of its QNR motif with FtsA” (Journal of Bacteriology, 2025).

How the values were obtained:
[1] = biological target: FtsA of B. subtilis, bacterial two-hybrid fusion (UniProt P28264); assay: bacterial two-hybrid, β-galactosidase activity; settings: cultured at 30°C for 16 h; parent: est. 270; read off a plot
[2] = biological target: FtsA of E. faecalis, bacterial two-hybrid fusion (UniProt O07111); assay: bacterial two-hybrid, β-galactosidase activity; settings: cultured at 30°C for 16 h; parent: est. 42; read off a plot
Chain of FtsA of E. faecalis, bacterial two-hybrid fusion (O07111 whole entry, the tested form may be a part): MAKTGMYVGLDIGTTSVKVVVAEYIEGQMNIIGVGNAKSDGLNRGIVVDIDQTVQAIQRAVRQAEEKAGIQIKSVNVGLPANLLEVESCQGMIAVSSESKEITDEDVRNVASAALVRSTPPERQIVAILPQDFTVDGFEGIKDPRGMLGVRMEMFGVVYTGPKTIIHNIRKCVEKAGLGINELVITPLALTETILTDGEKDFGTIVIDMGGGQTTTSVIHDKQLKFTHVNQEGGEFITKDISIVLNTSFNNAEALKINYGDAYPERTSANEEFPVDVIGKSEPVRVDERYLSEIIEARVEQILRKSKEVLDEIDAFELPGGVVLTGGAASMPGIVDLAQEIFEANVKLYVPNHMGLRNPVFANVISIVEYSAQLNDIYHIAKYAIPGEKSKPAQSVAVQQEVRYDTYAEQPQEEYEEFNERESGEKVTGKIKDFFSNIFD

[3] = biological target: FtsA of S. pneumoniae, bacterial two-hybrid fusion (UniProt A0A0H2ZPT5); assay: bacterial two-hybrid, β-galactosidase activity; settings: cultured at 30°C for 16 h; parent: est. 110; read off a plot
Chain of FtsA of S. pneumoniae, bacterial two-hybrid fusion (A0A0H2ZPT5 whole entry, the tested form may be a part): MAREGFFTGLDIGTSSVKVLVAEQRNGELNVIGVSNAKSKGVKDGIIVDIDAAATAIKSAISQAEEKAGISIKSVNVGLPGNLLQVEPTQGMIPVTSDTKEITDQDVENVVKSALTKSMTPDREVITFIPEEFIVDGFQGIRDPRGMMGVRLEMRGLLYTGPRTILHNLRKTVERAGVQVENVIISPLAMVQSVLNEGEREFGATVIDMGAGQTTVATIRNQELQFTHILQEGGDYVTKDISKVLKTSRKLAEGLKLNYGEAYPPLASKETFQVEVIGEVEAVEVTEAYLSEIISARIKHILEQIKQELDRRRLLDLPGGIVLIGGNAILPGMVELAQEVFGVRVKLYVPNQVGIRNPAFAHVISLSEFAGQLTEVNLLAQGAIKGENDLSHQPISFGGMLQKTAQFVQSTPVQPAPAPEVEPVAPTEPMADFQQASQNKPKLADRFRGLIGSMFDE

[4] = biological target: FtsA of S. suis, bacterial two-hybrid fusion (UniProt A0A0H3MTL7); assay: bacterial two-hybrid, β-galactosidase activity; settings: cultured at 30°C for 16 h; parent: est. 300; read off a plot
his-tagged FtsA protein [5] = biological target: T1, his-tagged FtsA protein (Streptococcus suis, UniProt A0A0H3MTL7 1-459); assay: SPR; Biacore T200; FtsA covalently immobilised on a CM5 chip (700 RU); EzrA_(cyto) or its variant injected at 200 to 3.125 µM in twofold dilutions, 30 µL/min, 25°C; equilibrium response fitted to a 1:1 binding model; settings: both partners purified
T1 construct: FtsA of Streptococcus suis, locus SSU05_0480; It was purified 'in the same way but without the SUMO cleavage step'; source: E. coli BL21 (DE3), pET28a, purified (Ni-NTA)
T1 sequence (looked up): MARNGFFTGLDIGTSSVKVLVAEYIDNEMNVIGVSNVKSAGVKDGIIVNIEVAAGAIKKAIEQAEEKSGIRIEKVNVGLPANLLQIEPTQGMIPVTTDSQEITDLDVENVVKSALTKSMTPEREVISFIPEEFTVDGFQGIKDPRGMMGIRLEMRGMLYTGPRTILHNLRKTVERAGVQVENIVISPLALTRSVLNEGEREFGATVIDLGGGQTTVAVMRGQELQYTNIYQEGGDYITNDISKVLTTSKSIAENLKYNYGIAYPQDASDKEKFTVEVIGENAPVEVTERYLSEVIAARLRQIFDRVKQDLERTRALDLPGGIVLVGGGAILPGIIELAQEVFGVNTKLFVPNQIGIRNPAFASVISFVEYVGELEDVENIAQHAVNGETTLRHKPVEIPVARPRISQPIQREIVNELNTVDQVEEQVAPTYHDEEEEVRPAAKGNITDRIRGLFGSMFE

his-tagged FtsA protein [6] = biological target: T2, his-tagged FtsA protein (Streptococcus suis, UniProt A0A0H3MTL7 1-459); assay: SPR; kinetic fit
T2 chain: T1 sequence (looked up)

his-tagged FtsA protein [7] = biological target: T2, his-tagged FtsA protein; assay: SPR; equilibrium (steady-state) fit

Chain of FtsA of B. subtilis, bacterial two-hybrid fusion (P28264 whole entry, the tested form may be a part): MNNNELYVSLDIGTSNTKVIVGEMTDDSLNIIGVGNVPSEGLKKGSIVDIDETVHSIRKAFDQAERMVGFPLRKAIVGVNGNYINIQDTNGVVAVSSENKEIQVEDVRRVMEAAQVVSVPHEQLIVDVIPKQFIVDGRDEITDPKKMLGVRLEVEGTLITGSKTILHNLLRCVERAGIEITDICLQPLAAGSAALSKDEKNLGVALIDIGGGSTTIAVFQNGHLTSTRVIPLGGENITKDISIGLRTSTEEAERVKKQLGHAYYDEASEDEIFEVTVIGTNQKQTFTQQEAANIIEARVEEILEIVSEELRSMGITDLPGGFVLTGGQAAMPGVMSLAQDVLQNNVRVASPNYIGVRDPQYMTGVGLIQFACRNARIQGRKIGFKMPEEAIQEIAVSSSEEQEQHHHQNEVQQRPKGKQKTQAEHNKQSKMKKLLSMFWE

Molecule “EzrA of B. subtilis, bacterial two-hybrid fusion (from UniProt O34894) QND” has a response [1] of 38 rel.U.

With “EzrA of Enterococcus faecalis, bacterial two-hybrid fusion (from UniProt Q838R5) QND” the response [2] was 25 rel.U.

“EzrA of S. pneumoniae, bacterial two-hybrid fusion R515D” was tested, and the response [3] was 21 rel.U.

“EzrA of S. suis, bacterial two-hybrid fusion R514D” gave a response [4] of 50 rel.U.

B1: cytoplasmic region of EzrA protein of S. suis (domain or fragment, Streptococcus suis, UniProt A4VWI6 27-574, looked up)
chain: RKRNDNLLVALEERKEELFNLPVNEEVETVKALHLIGQSQVSFREWNQKWVDLSLNSFADIENHIFEAEGYNNAFRFVSAKNAIDSIDSQIDLIEEDIASIRQGLMELKEQEEKNSGRVKHALNLFDSLQEAVRENPDSYGETLSELEKQLKNIEVEFSEFVMLNSSGDPIEASEILDKTEEHMIALNQIMDRIPSLIERVTKDFPEQLEDLESGYRKLVEQNYLFTEANIESQFQNIRVSIRENTALIVSFDLDAAEAENEGIQAKIDHLYKVFNREIEANKEAVKISKNLPKFLEHVVQNTQLLDEESQRLNATYLLADSKLSRINQLKARLESIEIVVTESVEDIENPQVAYSILEERLDHSLASLKEIEEEQLVLADYLKSQELSENTARKKATLYINKLHTLKRYMEKRNLPGIPAEFLTNFFRTSDHVEALIAELDYKRINIEVVNRLLENATYDMNQLEELAYLIVQNATLTEQLLQYSNRYRSFDESVQKAFNRSLSIFEKDFDYQAAFEEISFALETVEPGVTERFVRSYEKTREAIRY
notes: EzrA of Streptococcus suis, locus SSU05_1509, cytoplasmic region; also called EzrA_(cyto); source: E. coli BL21 (DE3), pET28a, purified (Ni-NTA, SUMO protease cleavage); not shown: His-SUMO, C-terminal, cleaved
In the case of B1, the “fold binding affinity against EzrA^R514D” value (his-tagged FtsA protein [5]) is reported as at least 10 fold, the Kd (his-tagged FtsA protein [6]) is reported as 1.91 nM and the Kd (his-tagged FtsA protein [7]) is reported as 37.2 nM.
